This sample holds only a part of the variants without activity.
Key:
biotinyl-Trp-oxazolone = experiment: self-aminoacylation, catalytic enhancement (BWO) (fold over background); higher = more active; k-Seq, kA / k0A0; sequences stand for … in GGGAAUGGAUCCACAUCUACGAAUUC…UUCACUGCAGACUUGACGAAGCUG
Summary of the method: (§1)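 Mutagenized RNA pools with a 21-nt variable region (0.43 μM) reacted with each biotinyl-aminoacyl-oxazolone at 2–1250 μM. Reactions ran in 50 μL HEPES/NaCl/KCl/MgCl2/CaCl2 buffer with 5% acetonitrile, pH 6.9–7.0, for 90 minutes at room temperature. Streptavidin-captured RNA was quantified by triplicate qPCR and Illumina sequencing, and per-sequence fraction reacted was fit to a pseudo-first-order model with 1000 bootstraps. Catalytic enhancement is median kA divided by the uncatalyzed rate, the low-activity peak of a bimodal Gaussian fit.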

biotinyl-Met-oxazolone = experiment: self-aminoacylation, catalytic enhancement (BMO) (fold over background); higher = more active; k-Seq, kA / k0A0; sequences stand for … in GGGAAUGGAUCCACAUCUACGAAUUC…UUCACUGCAGACUUGACGAAGCUG
Summary of the method: as §1

biotinyl-Ile-oxazolone = experiment: self-aminoacylation, catalytic enhancement (BIO) (fold over background); higher = more active; k-Seq, kA / k0A0; sequences stand for … in GGGAAUGGAUCCACAUCUACGAAUUC…UUCACUGCAGACUUGACGAAGCUG
Summary of the method: as §1

biotinyl-Phe-oxazolone = experiment: self-aminoacylation, catalytic enhancement (BFO) (fold over background); higher = more active; k-Seq, kA / k0A0; sequences stand for … in GGGAAUGGAUCCACAUCUACGAAUUC…UUCACUGCAGACUUGACGAAGCUG
Summary of the method: as §1

biotinyl-Val-oxazolone = experiment: self-aminoacylation, catalytic enhancement (BVO) (fold over background); higher = more active; k-Seq, kA / k0A0; sequences stand for … in GGGAAUGGAUCCACAUCUACGAAUUC…UUCACUGCAGACUUGACGAAGCUG
Summary of the method: as §1

biotinyl-Leu-oxazolone = experiment: self-aminoacylation, catalytic enhancement (BLO) (fold over background); higher = more active; k-Seq, kA / k0A0; sequences stand for … in GGGAAUGGAUCCACAUCUACGAAUUC…UUCACUGCAGACUUGACGAAGCUG
Summary of the method: as §1

Sequence | self-aminoacylation (biotinyl-Trp-oxazolone) | self-aminoacylation (biotinyl-Met-oxazolone) | self-aminoacylation (biotinyl-Ile-oxazolone) | self-aminoacylation (biotinyl-Phe-oxazolone) | self-aminoacylation (biotinyl-Val-oxazolone) | self-aminoacylation (biotinyl-Leu-oxazolone)
AUUACCCUGGUCAACGAGUGC [Fam2.1 aminoacylation ribozyme variant] | 0.892 | 0.848 | 0.908 | 0.478 | 0.903 | 1.01
AUUACCCUGGUCAACGCGUGA [Fam2.1 aminoacylation ribozyme variant] | 12.3 | 10.8 | 4.65 | 72.1 | 6.15 | 12.5
AUUACCCUGGUCAACGGGUGA [Fam2.1 aminoacylation ribozyme variant] | 10.8 | 9.43 | 4.83 | 46.6 | 4.61 | 9.68
AUUACCCUGGUCAACUAGUGA [Fam2.1 aminoacylation ribozyme variant] | 9.81 | 8.64 | 3.93 | 24.9 | 4.39 | 6.83
AUUACCCUGGUCACCGAGUCA [Fam2.1 aminoacylation ribozyme variant] | 1.84 | 1.45 | 1.43 | 0.799 | 1.49 | 1.75
AUUACCCUGGUCACCGAGUGC [Fam2.1 aminoacylation ribozyme variant] | 2.11 | 1.43 | 1.76 | 3.95 | 1.45 | 2.61
AUUACCCUGGUCACCGGGUGA [Fam2.1 aminoacylation ribozyme variant] | 14.1 | 14.5 | 6.24 | 87.4 | 7.91 | 14.8
AUUACCCUGGUCACGGAGUGA [Fam2.1 aminoacylation ribozyme variant] | 8.54 | 7.34 | 3.43 | 37.5 | 3.92 | 7.68
AUUACCCUGGUCAGAGAGUGA [Fam2.1 aminoacylation ribozyme variant] | 8.25 | 7.04 | 3.18 | 19.9 | 3.41 | 6.71
AUUACCCUGGUCAGCGACUGA [Fam2.1 aminoacylation ribozyme variant] | 1.94 | 1.3 | 1.12 | 1.03 | 1.31 | 1.05
AUUACCCUGGUCAGCGCGUGA [Fam2.1 aminoacylation ribozyme variant] | 6.87 | 5.84 | 3.45 | 35.3 | 3.95 | 6.5
AUUACCCUGGUCAUAGAGCGA [Fam2.1 aminoacylation ribozyme variant] | 1.18 | 1.03 | 1.05 | 1.37 | 1.04 | 1.04
AUUACCCUGGUCAUAGAGUCA [Fam2.1 aminoacylation ribozyme variant] | 0.529 | 0.82 | 0.884 | 0.531 | 0.974 | 0.962
AUUACCCUGGUCAUAGAGUGG [Fam2.1 aminoacylation ribozyme variant] | 1.18 | 2.18 | 1.37 | 3.37 | 1.43 | 2.31
AUUACCCUGGUCAUAUAGUGA [Fam2.1 aminoacylation ribozyme variant] | 12.4 | 11.2 | 5.04 | 69.1 | 5.51 | 10.7
AUUACCCUGGUCAUCCAAUGA [Fam2.1 aminoacylation ribozyme variant] | 0.429 | 1.2 | 0.938 | 1.66 | 0.942 | 1.47
AUUACCCUGGUCAUCCAGGGA [Fam2.1 aminoacylation ribozyme variant] | 2.26 | 2.82 | 1.91 | 7.32 | 1.67 | 1.84
AUUACCCUGGUCAUCGAGAUA [Fam2.1 aminoacylation ribozyme variant] | 3.19 | 3.42 | 1.78 | 7.71 | 2.2 | 3.19
AUUACCCUGGUCAUCGAGUAC [Fam2.1 aminoacylation ribozyme variant] | 4.57 | 6.05 | 2.32 | 17.2 | 3.03 | 5.94
AUUACCCUGGUCAUCGAGUAU [Fam2.1 aminoacylation ribozyme variant] | 24.4 | 26.9 | 8 | 97.7 | 9.24 | 23.6
AUUACCCUGGUCAUCGAGUGA [Fam2.1 aminoacylation ribozyme variant] | 99.1 | 91.3 | 34.6 | 657 | 37.9 | 86.9
AUUACCCUGGUCAUCGAGUGC [Fam2.1 aminoacylation ribozyme variant] | 8.98 | 11.4 | 3.92 | 24.9 | 4.71 | 10.9
AUUACCCUGGUCAUCGAGUGG [Fam2.1 aminoacylation ribozyme variant] | 52.1 | 56.9 | 16.3 | 361 | 18.5 | 55.4
AUUACCCUGGUCAUCGAGUUC [Fam2.1 aminoacylation ribozyme variant] | 1.54 | 1.88 | 1.02 | 4.38 | 1.53 | 2.17
AUUACCCUGGUCAUCGAGUUU [Fam2.1 aminoacylation ribozyme variant] | 6.31 | 7.8 | 3.52 | 14.8 | 4.61 | 7.87
AUUACCCUGGUCAUCGAUAGA [Fam2.1 aminoacylation ribozyme variant] | 1.23 | 0.638 | 0.721 | 0.5 | 0.77 | 0.537

Sequence | self-aminoacylation (biotinyl-Trp-oxazolone) | self-aminoacylation (biotinyl-Met-oxazolone) | self-aminoacylation (biotinyl-Ile-oxazolone) | self-aminoacylation (biotinyl-Phe-oxazolone) | self-aminoacylation (biotinyl-Val-oxazolone) | self-aminoacylation (biotinyl-Leu-oxazolone)
AUUACCCUGGUCAUCGCGAGA [Fam2.1 aminoacylation ribozyme variant] | 2.72 | 1.68 | 2.17 | 1.58 | 2.21 | 1.44
AUUACCCUGGUCAUCGCGCGA [Fam2.1 aminoacylation ribozyme variant] | 3.18 | 4.45 | 5.07 | 36.7 | 5.24 | 6.23
AUUACCCUGGUCAUCGCGUGC [Fam2.1 aminoacylation ribozyme variant] | 4.47 | 3.35 | 2.81 | 16.8 | 2.75 | 4.64
AUUACCCUGGUCAUCGGCUGA [Fam2.1 aminoacylation ribozyme variant] | 2.77 | 1.54 | 2.74 | 4.87 | 3.04 | 2.77
AUUACCCUGGUCAUCGGGUAA [Fam2.1 aminoacylation ribozyme variant] | 42.4 | 35.6 | 11.4 | 208 | 16 | 38.2
AUUACCCUGGUCAUCGGGUGC [Fam2.1 aminoacylation ribozyme variant] | 48.7 | 39.2 | 13.4 | 211 | 18.9 | 52.5
AUUACCCUGGUCAUCGUCUGA [Fam2.1 aminoacylation ribozyme variant] | 0.531 | 0.842 | 0.88 | 0.374 | 0.817 | 0.907
AUUACCCUGGUCAUCUAGUCA [Fam2.1 aminoacylation ribozyme variant] | 0.455 | 0.578 | 0.753 | 0.712 | 0.827 | 0.616
AUUACCCUGGUCAUCUAGUGA [Fam2.1 aminoacylation ribozyme variant] | 11.3 | 9.61 | 4.51 | 42.9 | 4.83 | 9.15
AUUACCCUGGUCAUCUUGUGA [Fam2.1 aminoacylation ribozyme variant] | 4.57 | 4.75 | 2.27 | 22.6 | 2.33 | 4.41
AUUACCCUGGUCAUGAAGUGA [Fam2.1 aminoacylation ribozyme variant] | 10.1 | 8.83 | 4.14 | 44.8 | 4.08 | 7.74
AUUACCCUGGUCAUGGAAUGA [Fam2.1 aminoacylation ribozyme variant] | 2.08 | 1.53 | 1.19 | 1.95 | 1.21 | 1.17
AUUACCCUGGUCAUGGAGAGA [Fam2.1 aminoacylation ribozyme variant] | 1.77 | 0.941 | 0.877 | 1.19 | 1.18 | 1.2
AUUACCCUGGUCAUGGUGUGA [Fam2.1 aminoacylation ribozyme variant] | 2.24 | 1.64 | 1.27 | 4.16 | 1.18 | 1.84
AUUACCCUGGUCAUUAAGUGA [Fam2.1 aminoacylation ribozyme variant] | 13.4 | 11.2 | 4.88 | 55.5 | 5.31 | 10.3
AUUACCCUGGUCAUUGAGCGA [Fam2.1 aminoacylation ribozyme variant] | 1.66 | 1.16 | 1.45 | 4.43 | 1.41 | 1.44
AUUACCCUGGUCCUCAAGUGA [Fam2.1 aminoacylation ribozyme variant] | 3.02 | 2.16 | 1.64 | 7.45 | 2.02 | 2.29
AUUACCCUGGUCCUCGAGUGC [Fam2.1 aminoacylation ribozyme variant] | 1.31 | 0.658 | 0.969 | 2.51 | 1.06 | 1.07
AUUACCCUGGUCGACGAGUGA [Fam2.1 aminoacylation ribozyme variant] | 6.05 | 5.53 | 2.86 | 26.4 | 3.33 | 5.32
AUUACCCUGGUCGGCGAGUGA [Fam2.1 aminoacylation ribozyme variant] | 8.06 | 7.37 | 5.39 | 53.6 | 5.03 | 9.02
AUUACCCUGGUCGUAGAGUGA [Fam2.1 aminoacylation ribozyme variant] | 2.26 | 1.28 | 1.17 | 3.08 | 1.09 | 1.84
AUUACCCUGGUCGUCGAGUAA [Fam2.1 aminoacylation ribozyme variant] | 0.721 | 1.3 | 1.27 | 1.08 | 1.12 | 1.68
AUUACCCUGGUCGUCGAGUCA [Fam2.1 aminoacylation ribozyme variant] | 0.444 | 0.904 | 1.05 | 0.524 | 1.05 | 0.956
AUUACCCUGGUCUCCGAGUGA [Fam2.1 aminoacylation ribozyme variant] | 9.46 | 7.41 | 3.95 | 64.4 | 4.33 | 8.91
AUUACCCUGGUCUUCAAGUGA [Fam2.1 aminoacylation ribozyme variant] | 5.67 | 4.91 | 2.76 | 23.8 | 2.67 | 4.28

Reference: the supplement of paper PMC9233669
